{
  "source": "patent US20120034672A1",
  "about": "“[…] LUCIFERASE VARIANT WITH PROLONGED BIOLUMINESCENCE” (priority 2009, published 2012)",
  "molecules": {"B1": {"name": "SimGR3: control probe: original GLuc dissected into two fragments with GR LBD and LXXLL motif inserted (protein)", "chain": "MKPTENNEDFNIVAVASNFATTDLDADRGKLPGKKLPLEVLKEMEANARKAGCTRGCLICLSHIKCTPKMKKFIPGRCHTYEGDKESAQGGGGGTQLTPTLVSLLEVIEPEVLYAGYDSSVPDSTWRIMTTLNMLGGRQVIAAVKWAKAIPGFRNLHLDDQMTLLQYSWMFLMAFALGWRSYRQSSANLLCFAPDLIINEQRMTLPCMYDQCKHMLYVSSELHRLQVSYEEYLCMKTLLLLSSVPKDGLKSQELFDEIRMTYIKELGKAIVKREGNSSQNWQRFYQLTKLLDSMHEVVENLLNYCFQTFLDKTMSIEFPEMLAEIITNQIPKYSNGNIKKLLFHQKVDGGNGGRNALLRYLLDKDGSGGGGIGEAIVDIPEIPGFKDLEPMEQFIAQVDLCVDCTTGCLKGLANVQCSDLLKKWLPQRCATFASKIQGQVDKIKGAGGDKDEL", "modifications": "SimGR3; an integrated molecule-format probe carrying an LXXLL motif and GLuc.", "notes": "control probe: original GLuc dissected into two fragments with GR LBD and LXXLL motif inserted"}},
  "tested_on": "stress hormone receptor (glucocorticoid receptor)",
  "test": "Single-molecule-format bioluminescent probe response to stress hormone",
  "format": "cell-based",
  "conditions": "with/without stress hormone",
  "protocol": "In order to further examine the advantages of the highly-luminescent variants of the present invention, a single-molecule-format bioluminescent probe was synthesized based on this variant (FIG. 13). […] These probes were inserted into living cells, and the difference in the luminescence intensity was measured under conditions of presence and absence of […].\nFirst, a stress hormone receptor recognizes the stress hormone, and causes an alteration in the structure. As a result, the receptor binds to the adjacent LXXLL motif, which thereby causes recombination of the fragments of the dissected luciferase. At this time, the activity of the stress hormone can be measured using the reversed enzyme activity as the index.\nThe sensitivity of SimGR3, 8990N, and Mon3N prepared for this experiment to the stress hormone was measured (FIG. 13B).",
  "data": [
    {"molecule": "B1", "values": [
      {"measurement": "luminescence and stress hormone sensitivity with 610 nm long-pass filter", "value": "not significant enough to distinguish between the presence and absence of stress hormone"}
    ]}
  ]
}
